Experimental findings from PMC5637921, “An engineered photoswitchable mammalian pyruvate kinase” (The Febs Journal, 2017) are described below.

This series deals with the molecule itself. Put plainly: SEC; preparative SEC after Ni affinity; HiLoad 16/600 Superdex 200 pg, 0.5 mL/min, 50 mM Tris/HCl pH 7.5, 10 mM MgCl2, 200 mM NaCl, 150 mM KCl, 5% glycerol, 0.5 mM TCEP. In general terms: Size exclusion chromatography separates by hydrodynamic size, large species first.

B1: mPKM2 internal LOV2 fusion at position D24 (PiL[D24]) (enzyme)
chain: not shown
notes: mouse pyruvate kinase M2 isoform (mPKM2), residues 1-24, amplified from pLHCX-flag-mPKM2; N-terminal part up to Asp24; Avena sativa phototropin 1 (NPH1-1) LOV2 domain, residues 404-540, amplified from plasmid pDS257 (Mid2(SS/TM)-GFP-LOVpep); G528A and N538E of the template were backmutated to wild-type LOV2; numbers count on phototropin 1 (NPH1-1, GenBank AAC05083.1); mouse pyruvate kinase M2 …
Broadly, the stoichiometry N is a count of units in the complex or per binding partner. On to B1, for which the “stoichiometry N” value came to 4.
